Here are results for 17 molecules from patent US20210340524A1 (MIT, published 2021).

Some results are limits rather than exact numbers.

For assay [1], the target named is T1, FMC63 IgG.
T1 construct: biotinylated in the flow cytometry assays; also called FMC63 IgG antibody; biotinylated FMC63 IgG
The experiment in a line: flow cytometry of yeast clones stained with 5 µM FMC63 IgG, tolerance of extra alanine residues. The method, then:
(§1) To determine the effect of amino acid position on binding to FMC63, an alanine mutagenesis experiment was performed were each amino acid was mutated to alanine and binding to FMC63 was assessed. Specifically, a representative mimotope, […] To assess the tolerance of additional alanine residues, one alanine or two alanine residues were inserted between the two cysteine residues (SEQ ID NOs: 52 and 53) to determine the impact the loop structure had on mimotope binding to FMC63. To generate mutations, two complementary oligos with the codon replaced at the desired site were denatured at 95° C. and annealed by slow cooling to 25° C. (decreasing by 0.5° C./second). The annealed oligos were treated with T4 PNK (T4 Polynucleotide Kinase) to add a terminal phosphate, and then ligated into digested pCT-CON2 vector. Positive clones having the correct oligo inserted were tested and transformed into competent EBY100 yeast cells. Following generation of mutated clones, flow cytometry was performed by staining the yeast with 5 μM FMC63 IgG antibody to measure binding of the mimotope (FIG. 11).

Assay [2] deals with T2, FMC63 scFv (biotinylated).
T2 construct: also called biotinylated FMC63 scFv; FMC63-scFv monomer
T2 sequence (scFv, as listed by the source): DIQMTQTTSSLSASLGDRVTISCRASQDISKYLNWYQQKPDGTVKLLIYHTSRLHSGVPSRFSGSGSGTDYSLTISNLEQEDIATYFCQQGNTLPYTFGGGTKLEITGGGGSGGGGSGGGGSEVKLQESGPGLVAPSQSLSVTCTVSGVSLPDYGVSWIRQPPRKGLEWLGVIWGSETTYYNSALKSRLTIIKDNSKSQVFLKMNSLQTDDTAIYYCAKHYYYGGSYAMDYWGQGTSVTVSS
The assay can be described thus: flow cytometry of yeast clones, titration with biotinylated FMC63 scFv and streptavidin-PE, MFI (geometric mean). The method, then: The binding affinity of the isolated yeast clones to FMC63 was determined.

In assay [3] the target is T1, FMC63 IgG. The experiment in a line: ELISA with FMC63 IgG; ELISA, not FACS titration. On the procedure: Next, the affinity of the […] (SEQ ID NO: 5) mimotope to FMC63 was determined.
A general note: In an ELISA, binding on a coated surface is turned into a signal by an enzyme label.

In assay [4] the target is T1, FMC63 IgG. The experiment in a line: flow cytometry (MFI), yeast clone titrated with 0.01-1000 nM biotinylated FMC63 IgG. An excerpt: (§2) In order to validate specific sequences, clones were isolated and measured for their affinity to FMC63. Specifically, a subset of mimotope clones were selected from the fixed library sequence described in Example 5.
Assay [5] deals with T3, anti-mCD19 IgG (clone 1D3).
T3 construct: Anti-mouse CD19 IgG; also called 1D3 IgG; biotinylated 1D3 antibody
T3 sequence (VH, as listed by the source, chain 1 of 2): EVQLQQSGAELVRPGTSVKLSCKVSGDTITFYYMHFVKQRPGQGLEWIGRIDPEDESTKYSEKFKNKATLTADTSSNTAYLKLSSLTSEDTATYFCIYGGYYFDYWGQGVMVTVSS
T3 sequence (VL, as listed by the source, chain 2 of 2): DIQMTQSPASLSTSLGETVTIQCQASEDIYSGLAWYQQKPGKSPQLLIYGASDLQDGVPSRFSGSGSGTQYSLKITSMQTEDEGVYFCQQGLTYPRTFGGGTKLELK
The assay can be described thus: ELISA, titration with anti-mCD19 (1D3) IgG, OD(450nm); value printed beside the square curve.

Assay [6] has as its target T3, anti-mCD19 IgG (clone 1D3). The experiment in a line: ELISA, titration with anti-mCD19 (1D3) IgG, OD(450nm); value printed beside the triangle curve.
The target of assay [7] is T1, FMC63 IgG. The experiment in a line: flow cytometry (MFI), yeast clone titrated with 0.01-1000 nM biotinylated FMC63 IgG; yeast-displayed clone, FACS titration 0.01-1000 nM biotinylated FMC63 IgG.
Description: as §2
A general note: A flow cytometer gives signals particle by particle.

The target in assay [8] is T1, FMC63 IgG. The assay can be described thus: flow cytometry of yeast clones stained with 5 µM FMC63 IgG, alanine scan. On the procedure:
as §1

In assay [9] the target is T1, FMC63 IgG. The assay can be described thus: flow cytometry of yeast clones, titration with 0.01-1000 nM biotinylated FMC63 IgG, MFI (geometric mean).
Description: as §2

The target in assay [10] is T3, anti-mCD19 IgG (clone 1D3). The experiment in a line: ELISA, titration with anti-mCD19 (1D3) IgG, OD(450nm); value printed beside the circle curve.

T1 sequence (VH, as listed by the source, chain 1 of 2): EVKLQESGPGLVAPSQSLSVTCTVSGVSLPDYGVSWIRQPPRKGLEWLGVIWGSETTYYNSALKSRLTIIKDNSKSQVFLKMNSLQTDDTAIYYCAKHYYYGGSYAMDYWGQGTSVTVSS
T1 sequence (VL, as listed by the source, chain 2 of 2): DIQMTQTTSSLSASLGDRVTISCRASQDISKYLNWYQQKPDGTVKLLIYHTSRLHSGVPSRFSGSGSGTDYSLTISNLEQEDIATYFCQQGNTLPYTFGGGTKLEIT

B1: FMC63 Mimotope Mutant RLCPWSAACREL (SEQ ID NO: 52), yeast-displayed (peptide)
peptide: RLCPWSAACREL
notes: also called two alanine residues inserted between the two cysteine residues
Turning to B1, in [1], the binding result is reported as “no binding (tested: 5 µM)”.

B2: K-C2 mimotope, yeast-displayed (peptide)
peptide: RICPWNCKELPSPPRIFGNR
By EC50 (read off the curve) is commonly meant the concentration that produces a half-maximal response. Low values mean an effect from little substance, high ones a need for much substance. Turning to B2, the “EC50 (read off the curve)” value in assay [2] was about 10 nM.

B3: high-affinity mimotope RHCPWNCSLL (SEQ ID NO: 5) as used in the ELISA of FIG. 7 (peptide)
peptide: RHCPWNCSLL
Broadly, the Kd is the equilibrium constant for the complex coming apart. For the molecule B3, the Kd in [3] is about 1400 nM.

B4: FMC63 Mimotope (D12), yeast-displayed (peptide)
peptide: RICPWSCRAP
As for B4, the Kd in assay [4] was over 1000 nM.

B5: 1D3 Mimotope Multimer H1 + C11 (SKLKGKSGPEFHWFINVPPF) (peptide)
peptide: SKLKGKSGPEFHWFINVPPF
notes: Chemically synthesized 20 amino acid fusion of two mimotopes; also called fusion mimotope
The molecule B5 came in with a Kd in [5] of 102 nM.

B6: FMC63 Mimotope Mutant RLCPWSACREL (SEQ ID NO: 53), yeast-displayed (peptide)
peptide: RLCPWSACREL
notes: also called one alanine inserted between the two cysteine residues
With B6, in assay [1], the binding result is recorded as “no binding (tested: 5 µM)”.

B7: 1D3 Mimotope Multimer H1 + E2 (SKLKGKSGPEIRVLMSRVFA) (peptide)
peptide: SKLKGKSGPEIRVLMSRVFA
notes: as for B5
Molecule B7 returned a Kd in assay [6] of 6.7 nM.

B8: FMC63 Mimotope (A1), yeast-displayed (peptide)
peptide: RHCPWNCSLL
In [7], B8 returned a Kd of over 1000 nM.

B9: ALCPWSCREL (peptide)
displayed peptide: ALCPWSCREL
notes: also called alanine at R1 (position 1)
For the molecule B9, the binding result in [8] is “no binding (tested: 5 µM)”.

B10: RLCPWSAREL (peptide)
displayed peptide: RLCPWSAREL
notes: also called alanine at C7 (position 7)
On to B10, for which, in [8], the binding result is “no binding (tested: 5 µM)”.

B11: FMC63 Mimotope(F8), yeast-displayed (peptide)
peptide: RLCPWDCREL
As for B11, the “EC50 (read off the curve)” value in [9] was about 10 nM.

B12: RLCAWSCREL (peptide)
displayed peptide: RLCAWSCREL
notes: also called alanine at P4 (position 4)
As to B12, the binding result in assay [8] was “no binding (tested: 5 µM)”.

B13: RLCPASCREL (peptide)
displayed peptide: RLCPASCREL
notes: also called alanine at W5 (position 5)
For B13, the binding result in [8] is reported as “no binding (tested: 5 µM)”.

B14: FMC63 Mimotope(H8), yeast-displayed (peptide)
peptide: RICPWACVEL
For the molecule B14, the “EC50 (read off the curve)” value in [9] is about 8 nM.

B15: RLAPWSCREL (peptide)
displayed peptide: RLAPWSCREL
notes: also called alanine at C3 (position 3)
In the case of B15, in assay [8], the binding result is listed as “no binding (tested: 5 µM)”.

B16: FMC63 Mimotope(F12), yeast-displayed (peptide)
peptide: RICPWNCKEL
notes: also called F12 mimotope
As to B16, in assay [2], the 50% effective concentration (EC50 (read off the curve)) is about 40 nM.

B17: 1D3 mimotope H1 (SKLKGKSGPE) as used in the ELISA of FIG. 13 (peptide)
peptide: SKLKGKSGPE
notes: also called 10 amino acid mimotope
In the case of B17, in assay [10], the Kd was found to be 190 nM.
